These results are taken from publication PMC6859792.

The test system of this data set is O=P(O)(O)O[C@H]1O[C@H]([C@H](O)CO)[C@@H](O)[C@H](O)[C@@H]1O. Description: purified protein. As to conditions: pH 7.4, 25 °C, GTP 1.0 mM, MgCl2 2.0 mM, pyrophosphatase 1 U.

Regarding “Cj1423 (Campylobacter jejuni subsp. jejuni NCTC 11168 = ATCC 700819)”, the Km amounted to 495 ± 65 µM, the kcat came out at 1.35 ± 0.04 s⁻¹ and the kcat/Km was determined as 2700 ± 400 M⁻¹ s⁻¹.

What is called Km is the concentration of substrate that gives half-maximal velocity. The term kcat denotes the number of substrate molecules converted per active site and unit of time at saturation. Broadly, the kcat/Km is the turnover number divided by the Michaelis constant.
